141 substances from the supplement of paper PMC12042874 can be followed below.

This series can be described thus: amyloid nucleation score (Sup35N fusion, yeast selection) (log enrichment); library NNK2; higher = more nucleation; inactive = no reads after selection. In a few lines:
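Growth for 7 days at 30°C on medium lacking adenine and uracil followed a 24-hour induction with 100 μM copper sulfate of psi-negative yeast expressing peptides of 20 random codons fused to Sup35N. Input and output plasmid inserts were sequenced with Illumina, and sequences with under 100 input reads were excluded. Nucleation score is the DiMSum log enrichment of output over input reads, centred on the mode score of non-aggregating sequences.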

± gives the uncertainty stated by the source.

GRNFYESNCAMFDRYSCFGS came in with an amyloid nucleation score of 0.255 ± 1.1. The substance SRFVLRFSRGLEGRTSSDMR showed an amyloid nucleation score of 0.294 ± 0.42. As for GLWDSRMAFSRTS, the figure is 3.57 ± 0.078; as for STPDVVEAWFL, 0.039 ± 0.46; as for LLVVIPYGSYWDV, -0.501 ± 0.78. As for GYVFHYVSIQL, the figure is 7.957 ± 0.027; as for CIDRFHTVPLAVHSVCGILL, -0.319 ± 0.76. Under EDFMRCRVWVSRGLVPSWGS stands 0.747 ± 0.24; under FARGNINLMVVFVFFDS, 5.766 ± 0.049.

VIFIINELYGCIASNERVCA returned an amyloid nucleation score of 6.281 ± 0.049. As for KYCSINCYRTASFQTFHLCW, the figure is 6.231 ± 0.036; as for FLICGHCWGPNTYYNTSVLM, 7.8 ± 0.061; as for LLFMKTFVVRP, 0.494 ± 0.26. Under VCHHSSI stands “inactive”; under TIRFS, -1.58 ± 0.37. YCKGSS: the amyloid nucleation score is -0.46 ± 1. Take VMTIVIFGLYNY: the amyloid nucleation score amounted to 2.35 ± 0.18.

SLETFNVTPCRDVT returned an amyloid nucleation score of -0.633 ± 1.1. Substance AYIDVTWWPFVFLDQVMYTT had an amyloid nucleation score of 0.089 ± 0.48. For YGQMVLRPFDTFVARQ, the amyloid nucleation score is -1.05 ± 0.48. As for YLGTF, the figure is 0.187 ± 0.56. Under LNQCWRI stands “inactive”; under GVNKVT, 0.115 ± 1.

KLYMCVIFYCLKGRLLVTYM returned an amyloid nucleation score of -1.18 ± 0.63. Under IVMSCSMNPIEAYEVLCEFF stands 0.382 ± 0.8; under SKFDLYAKFMIRINRLFVLW, -1.59 ± 0.41.

With PNSGFSGNCIKVIQHNLQG, the amyloid nucleation score result was “inactive”.

As to KPNPFLVLLLRT, the amyloid nucleation score is -0.123 ± 0.46. Under DARKNVDRSPSSLSEKVLSL stands 0.642 ± 0.34; under CLTTRTSGHNGYQRHDLI, “inactive”. As for YYSKNAVVWVNGCVRRVMII, the figure is 0.127 ± 0.63; as for VHFMIMQNSNCYCVKHIDFM, 9.425 ± 0.04; as for LGYIRCLHSVSYLLFMYMLF, “inactive”. Under YNKSSYE stands -1.47 ± 1.1; under LKGSRNRATSDKGWKEG, 0.306 ± 0.8.

For NLILWKTYCAAFCVGFINCT, the amyloid nucleation score stood at 5.36 ± 0.069. Under HSMSKDLGWFHPNVNRFGFF stands “inactive”. Under CGRLGLHYQCMLCCGIGSIL stands 2.23 ± 0.27; under RRYMVMSDWLDKPWWGYFGV, -0.855 ± 0.24; under VSCAESVGIYINYWFLNCQE, 8.702 ± 0.03. Under FVINSCENVARTHRVCQLAM stands -0.115 ± 0.37. Turning to NDSVRTVGCIQYMMRIASVF, the amyloid nucleation score is 0.783 ± 0.57. Under GFSLVW stands -0.413 ± 0.41; under RRETRMGVSSVLDPVAGRWP, 1.58 ± 0.17; under RCIDFDSSCASTNYGSVLWA, 1.09 ± 0.38. Under LSRNTYWYGVEIGLVLSSCT stands 0.161 ± 0.24. Under LSNLWSSSF stands “inactive”; under NFKWLILAGGVC, -0.808 ± 0.41. For the substance LFGHLVLYYPFSSTINCVVV, the amyloid nucleation score was found to be 5.59 ± 0.056.

As for LFSHELADSSTVMKYTWWAV, the amyloid nucleation score amounted to 4.23 ± 0.045.

MIFLYCYIRIEKKVS had an amyloid nucleation score of -0.927 ± 0.36. With LLNFGVLGSDLSINKCNFSS, the amyloid nucleation score was 1.89 ± 0.18. Under AYCFVGFALVRCVGANDVRR stands 1.6 ± 0.22; under FTVKGTITVYFMVAV, 2.17 ± 0.11; under SNGVAWQCNGNSYRIFCDTS, 7.522 ± 0.069. As for TLVHNFGCSLGHLKFRQNMW, the figure is -0.33 ± 1.1; as for FEGSLPVPDGEEAWCAQRMS, -0.006 ± 0.45.

Take PYIEVY: the amyloid nucleation score came out at 0.926 ± 0.52. Under LKYCVH stands -0.414 ± 0.61. As for LSWRFFLSCWN, the entry is “inactive”; as for YTRNIHMHFHRMLPNVGMAF, “inactive”.

For the substance DWHYIEKWT, the amyloid nucleation score is -0.12 ± 0.49. Under SLCEFMREGCLLTYWFNKCE stands -0.838 ± 0.64; under RSFLWVFRKYRGW, 0.783 ± 0.66. In turn, GNRVWERTNFELSSDRESGV displayed an amyloid nucleation score of 0.832 ± 0.27.

Consider IARSKVGRRYHVGRFRCVCV, for which the amyloid nucleation score is -0.095 ± 0.44. Under LRDLLLVRTSSCDSYMWLSP stands -0.254 ± 1; under FFSVHEDRREKYLSNNV, -2.15 ± 1.1; under ALYRL, 0.233 ± 0.62. Under GSLDWRMELWWKFFLHHQPL stands 0.759 ± 0.74; under SYRSVYYLVMGFPIGHH, -1.67 ± 1. With NKRLLLMFNRWDCVVSWDKC, the amyloid nucleation score is -1.31 ± 0.78. Under LKVISTCLRWQHASLPCQ stands 0.822 ± 0.43. As for CCVGGVPV, the figure is 2.57 ± 0.083; as for TCQLMMCNFVFCCKMTSTLK, 8.252 ± 0.047. As for SSLRLDIVRTVHYSQIPEDA, the figure is 1.04 ± 0.33.

In turn, PVCGVIALDSVTLCSSGMLL showed an amyloid nucleation score of 0.334 ± 0.39. As for HHATKNFCTLFCLKSWGRFS, the amyloid nucleation score is 7.767 ± 0.059. HRVWRVAFVQVRSFIY registered an amyloid nucleation score of -0.038 ± 1. Under RLFVPFVFFQAMPTEREPFH stands -0.79 ± 1; under SHCCFLG, 0.118 ± 0.51. Under THVNFW stands “inactive”. Under PPNRVNGNW stands 0.853 ± 0.57; under DHVLSFDSIVVWYLRIGGEE, -0.656 ± 1.1. The substance HCVDLLREMQ came in with an amyloid nucleation score of 0.621 ± 0.43. Under GCGCATGREDTPGNIGWMV stands 0.507 ± 0.25. Under GLRRRMCCRRCWLEGVDFQD stands “inactive”; under TSGPLFAPPC, 0.402 ± 0.66.

On to DINKFVAVWCHYLSGKGLLP, for which the amyloid nucleation score was -0.359 ± 0.26. As to WFGFGESAHLYRLREEDFHD, the amyloid nucleation score was -0.206 ± 0.79. The substance THDPNLRCYFVIGTELHSRT registered an amyloid nucleation score of 0.126 ± 0.8. As for RDVVSLGLQEGNSRMRHTGG, the figure is 0.82 ± 0.23; as for DCSCFYFF, 2.96 ± 0.08; as for YYSDVGVYSVRGYLLWS, -0.447 ± 0.61. As for VVDCKGVLLAFSNRIFGWTT, the figure is -0.064 ± 0.76; as for RQMPVGGCVFMTKVCKT, 0.232 ± 0.64; as for FIRNYWSVYGRWSANIFDDL, 0.48 ± 0.45.

In turn, QYTRDFVRGTSQF had an amyloid nucleation score of -0.949 ± 1.1. Under PHHWTQWSVKMSGFRSLLRR stands 1.19 ± 0.13; under NNDYFTEGAGKGVTLIGALG, 4.443 ± 0.041. As for HCSVSLTFFVLQTPL, the figure is 4.79 ± 0.069; as for CCGGVRMMEELRCSTWSRVV, 0.868 ± 0.26; as for SLFYVTLAPTSWICGTARC, 1.43 ± 0.41. Under WLGTRWRRGWGRLLKREGIL stands 1.79 ± 0.13; under SCYLALKFTFRLFVLKSEGL, -0.202 ± 1; under VKSRRLTYNS, 0.192 ± 0.79.

Take FQRFVIK: the amyloid nucleation score was -2.12 ± 0.44.

In turn, NELNLDKPSDLPLS returned an amyloid nucleation score of 0.844 ± 0.31. Under CNIVRSYCLL stands -0.937 ± 0.5; under EYNRTLWSCYHWFVHVPPTN, -0.171 ± 1.

Turning to IGSRVVYISRVLLKNWTLVT, the amyloid nucleation score is -0.592 ± 0.76. As for QCMVVQYD, the figure is -0.394 ± 0.65; as for RYHSRAWAPYCTTHATVPEV, 1.28 ± 0.29; as for YEDSGRRKLLNGP, -0.381 ± 1.1. Under AKWRDRSETYYLYFRISVRI stands -0.493 ± 1.1; under VNLSTGSRDLRGYWTTPIFQ, -0.815 ± 0.54.

As to MGLVDGMCMFDFDLVLAVVG, the amyloid nucleation score result was “inactive”. Under FARLGLSSQHRRLIVC stands -1.31 ± 0.54; under YAHRTSTA, 0.342 ± 0.62.

VLDSINVSVCSWRVSCVTWL displayed an amyloid nucleation score of 7.709 ± 0.033. As for SQVERVQFTGIRKWYGAGRS, the figure is 4.57 ± 0.072; as for WFTYQVAYVWYGRNFDTSPA, 7.961 ± 0.067; as for RLSPPLCVLIYIMRYLNGYW, 0.42 ± 0.66. As for IRFYGS, the entry is “inactive”; as for ENLPGWLLVKMVQYY, 0.276 ± 0.54. As for YNFGEFACYHH, the figure is 3.81 ± 0.099. In the case of WCSIDLSHFVCYNLGYMR, the amyloid nucleation score amounted to 7.395 ± 0.052.

Take WRKCKLFFTLYHLHTVELWI: the amyloid nucleation score was -0.826 ± 0.49.

CRTLSGCYQDCGAVNGVLRV yielded an amyloid nucleation score of 1.22 ± 0.3.

On to NPYINLLRFIDSDSSALV, for which the amyloid nucleation score was -1.35 ± 1.1.

SDDLCHCIFGVVPGKSFPTM: the amyloid nucleation score entry is “inactive”. Under ISGWYVVSSVS stands 0.912 ± 0.22; under LRGYRGFPYCDLYFVCMLRN, -1.06 ± 1.1. DECAVPRSE: the amyloid nucleation score came out at 0.7 ± 0.51.

As to GSVVHQEFFSPSKGFVSSQF, the amyloid nucleation score was -1.4 ± 0.55.

FFTCFTYCDCHNPVMI returned an amyloid nucleation score of 3.28 ± 0.12. As for IIEIRAASGPVGFSDINMF, the figure is -0.459 ± 1.1; as for SWVFVWLSH, -0.256 ± 1.1. As for ELPMLGFVCNYSKHQLFIFY, the figure is 5.04 ± 0.1. As for HSGMRMRPASSCSPKKP, the figure is 0.189 ± 0.49; as for RWATAKRI, 0.194 ± 0.49.
